Results reported in the supplement of paper PMC10065799, “High-throughput profiling of sequence recognition by tyrosine kinases and SH2 domains using bacterial peptide display” (eLife, 2023).

What follows are sequences tested on c-Abl (mouse) (assay: phosphorylation enrichment, bacterial display (enrichment ratio); higher = better substrate or ligand; peptides without Tyr show the background).
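Further: 11-residue human phosphosite peptides and single-mutation variants displayed on the E. coli surface, counted by deep sequencing, each peptide's frequency after selection divided by its frequency in the unselected input library; frequency after pTyr selection over input frequency; kinase dosed for 20-30% of maximal phosphorylation in three min.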

Compared with AGQEDDDRLRP [RAC1_Y64_Y64D], EPNSRYTCKLE [USH2A_Y3745_Y3747C] is higher in phosphorylation enrichment: 0.703 for the first, 0.762 for the second.

Going from RAEAPYLLVSN [LRIG1_Y1054_Q1053P] to SEDSEYYRAFE [CASQ2_Y178_K180R], the phosphorylation enrichment rises from 0.556 to 0.89.

Going from CEHRGCLFLAI [TEK_Y897_Y897C_YF] to NPQKSYFIRLY [WAS_Y83], the phosphorylation enrichment rises from 0.601 to 0.724.

First: RAHARYCADAC [ACOT4_Y52_R57C]
Second: KRPAVYIDEEA [EPM2A_Y304]
The phosphorylation enrichment of the first is higher: 0.889 for the first, 0.746 for the second.

Going from KRLAVYIDEEA [EPM2A_Y304_P301L] to VVDVTYDDVPI [FLNB_Y1308_E1305D], the phosphorylation enrichment rises from 0.781 to 0.801.

Going from ESKKHYGFSLF [ANXA3_Y295_F291S_YF] to DLLMQHPKAQG [FAM83C_Y600_Y600H], the phosphorylation enrichment rises from 0.676 to 1.46.

First: WHHTFYNELCV [ACTC1_Y93_R97C]
Second: TVQVAYYTVMM [SPATA17_Y83_M86V]
The phosphorylation enrichment of the first is lower: 0.761 for the first, 0.972 for the second.

Compared with PKSWNYELPAT [PROM1_Y34_A31S], LEKISYVFMKR [SSX7_Y48_YF] is higher in phosphorylation enrichment: 0.605 for the first, 0.811 for the second.

Compared with CLAKMYFSAVE [CP_Y539_D544E_YF], GEAEQYVGGGG [FAT4_Y4980] is lower in phosphorylation enrichment: 0.848 for the first, 0.584 for the second.

First: EGTATYAAAIL [JUP_Y644_V648I]
Second: SGVSYYINLCQ [IGF2R_Y2025_N2020S]
The phosphorylation enrichment of the first is higher: 0.976 for the first, 0.803 for the second.

Compared with GLDGSYLLTDS [SH2D1A_Y29_R32T], NYRPGYNNFYN [USH2A_Y467] is lower in phosphorylation enrichment: 0.551 for the first, 0.514 for the second.

Compared with VDTLWYKFLKR [EPM2A_Y86_F84L], GGEEFYVHFVG [KAT8_Y90_R86G_YF] is higher in phosphorylation enrichment: 0.68 for the first, 0.967 for the second.

First: RKVAQYMLENE [SLC16A6_Y224_E221V]
Second: FRDMDYRSFPH [RBM10_Y41_R46H_YF]
The phosphorylation enrichment of the first is lower: 0.506 for the first, 0.549 for the second.

Going from SKHRLYSDLQT [PTCHD1_Y84] to NCLRQYVAGRF [CRB1_Y711_E710Q], the phosphorylation enrichment rises from 0.476 to 0.576.

Going from KSEMSYIDGEK [SORBS1_Y485] to GFAGKYIAMVM [CYP19A1_Y441_C437Y_YF], the phosphorylation enrichment falls from 0.586 to 0.473.

Going from YSIDHYLGKEM [G6PD_Y202_R198S] to PDDPDYSLVDD [PSTPIP2_Y323_N322D], the phosphorylation enrichment rises from 0.555 to 1.04.

For LSDGPYSNPYE [EPOR_Y485], the phosphorylation enrichment was 3.22.

These sequences were tested against Fes (UniProt P07332) in the same assay as above.
Sequence of Fes (P07332 whole entry, looked up): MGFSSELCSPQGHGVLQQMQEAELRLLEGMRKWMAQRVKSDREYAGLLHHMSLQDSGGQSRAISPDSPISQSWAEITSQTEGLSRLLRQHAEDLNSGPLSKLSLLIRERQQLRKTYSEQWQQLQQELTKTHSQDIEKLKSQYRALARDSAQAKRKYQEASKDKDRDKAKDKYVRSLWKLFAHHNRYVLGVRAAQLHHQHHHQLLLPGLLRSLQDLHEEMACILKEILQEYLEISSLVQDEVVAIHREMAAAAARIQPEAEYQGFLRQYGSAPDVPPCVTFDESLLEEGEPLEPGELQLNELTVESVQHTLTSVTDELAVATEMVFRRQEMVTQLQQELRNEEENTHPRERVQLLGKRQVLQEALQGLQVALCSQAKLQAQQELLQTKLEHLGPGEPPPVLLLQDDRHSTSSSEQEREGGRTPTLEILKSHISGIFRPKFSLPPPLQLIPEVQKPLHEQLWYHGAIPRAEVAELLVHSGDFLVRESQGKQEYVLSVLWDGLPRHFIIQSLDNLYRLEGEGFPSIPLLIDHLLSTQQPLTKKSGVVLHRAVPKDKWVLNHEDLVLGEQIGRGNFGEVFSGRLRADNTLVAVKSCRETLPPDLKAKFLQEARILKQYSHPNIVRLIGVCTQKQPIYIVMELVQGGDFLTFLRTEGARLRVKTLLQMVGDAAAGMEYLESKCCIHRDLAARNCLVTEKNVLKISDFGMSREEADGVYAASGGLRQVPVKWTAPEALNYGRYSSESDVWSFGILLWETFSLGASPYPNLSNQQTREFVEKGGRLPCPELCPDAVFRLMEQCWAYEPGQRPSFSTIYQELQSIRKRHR

Compared with AGQEDDDRLRP [RAC1_Y64_Y64D], EPNSRYTCKLE [USH2A_Y3745_Y3747C] is lower in phosphorylation enrichment: 1.28 for the first, 0.985 for the second.

Going from RAEAPYLLVSN [LRIG1_Y1054_Q1053P] to SEDSEYYRAFE [CASQ2_Y178_K180R], the phosphorylation enrichment rises from 0.775 to 1.29.

Compared with CEHRGCLFLAI [TEK_Y897_Y897C_YF], NPQKSYFIRLY [WAS_Y83] is higher in phosphorylation enrichment: 1.13 for the first, 1.15 for the second.

First: RAHARYCADAC [ACOT4_Y52_R57C]
Second: KRPAVYIDEEA [EPM2A_Y304]
The phosphorylation enrichment of the first is lower: 0.677 for the first, 1.07 for the second.

Compared with KRLAVYIDEEA [EPM2A_Y304_P301L], VVDVTYDDVPI [FLNB_Y1308_E1305D] is higher in phosphorylation enrichment: 1.14 for the first, 1.27 for the second.

First: ESKKHYGFSLF [ANXA3_Y295_F291S_YF]
Second: DLLMQHPKAQG [FAM83C_Y600_Y600H]
The phosphorylation enrichment of the first is higher: 1.03 for the first, 0.693 for the second.

Compared with WHHTFYNELCV [ACTC1_Y93_R97C], TVQVAYYTVMM [SPATA17_Y83_M86V] is higher in phosphorylation enrichment: 1.23 for the first, 1.5 for the second.

Compared with PKSWNYELPAT [PROM1_Y34_A31S], LEKISYVFMKR [SSX7_Y48_YF] is higher in phosphorylation enrichment: 1.45 for the first, 2.51 for the second.

Compared with CLAKMYFSAVE [CP_Y539_D544E_YF], GEAEQYVGGGG [FAT4_Y4980] is lower in phosphorylation enrichment: 1.35 for the first, 0.87 for the second.

First: EGTATYAAAIL [JUP_Y644_V648I]
Second: SGVSYYINLCQ [IGF2R_Y2025_N2020S]
The phosphorylation enrichment of the first is lower: 0.872 for the first, 1.5 for the second.

Compared with GLDGSYLLTDS [SH2D1A_Y29_R32T], NYRPGYNNFYN [USH2A_Y467] is lower in phosphorylation enrichment: 0.863 for the first, 0.705 for the second.

Going from VDTLWYKFLKR [EPM2A_Y86_F84L] to GGEEFYVHFVG [KAT8_Y90_R86G_YF], the phosphorylation enrichment rises from 1.11 to 1.39.

Compared with RKVAQYMLENE [SLC16A6_Y224_E221V], FRDMDYRSFPH [RBM10_Y41_R46H_YF] is lower in phosphorylation enrichment: 0.859 for the first, 0.698 for the second.

First: SKHRLYSDLQT [PTCHD1_Y84]
Second: NCLRQYVAGRF [CRB1_Y711_E710Q]
The phosphorylation enrichment of the first is higher: 0.715 for the first, 0.646 for the second.

Compared with KSEMSYIDGEK [SORBS1_Y485], GFAGKYIAMVM [CYP19A1_Y441_C437Y_YF] is higher in phosphorylation enrichment: 0.848 for the first, 0.858 for the second.

First: YSIDHYLGKEM [G6PD_Y202_R198S]
Second: PDDPDYSLVDD [PSTPIP2_Y323_N322D]
The phosphorylation enrichment of the first is lower: 0.671 for the first, 1.97 for the second.

What follows are sequences tested against MERTK (UniProt Q12866) in the same assay as above.
Sequence of MERTK (Q12866 whole entry, looked up): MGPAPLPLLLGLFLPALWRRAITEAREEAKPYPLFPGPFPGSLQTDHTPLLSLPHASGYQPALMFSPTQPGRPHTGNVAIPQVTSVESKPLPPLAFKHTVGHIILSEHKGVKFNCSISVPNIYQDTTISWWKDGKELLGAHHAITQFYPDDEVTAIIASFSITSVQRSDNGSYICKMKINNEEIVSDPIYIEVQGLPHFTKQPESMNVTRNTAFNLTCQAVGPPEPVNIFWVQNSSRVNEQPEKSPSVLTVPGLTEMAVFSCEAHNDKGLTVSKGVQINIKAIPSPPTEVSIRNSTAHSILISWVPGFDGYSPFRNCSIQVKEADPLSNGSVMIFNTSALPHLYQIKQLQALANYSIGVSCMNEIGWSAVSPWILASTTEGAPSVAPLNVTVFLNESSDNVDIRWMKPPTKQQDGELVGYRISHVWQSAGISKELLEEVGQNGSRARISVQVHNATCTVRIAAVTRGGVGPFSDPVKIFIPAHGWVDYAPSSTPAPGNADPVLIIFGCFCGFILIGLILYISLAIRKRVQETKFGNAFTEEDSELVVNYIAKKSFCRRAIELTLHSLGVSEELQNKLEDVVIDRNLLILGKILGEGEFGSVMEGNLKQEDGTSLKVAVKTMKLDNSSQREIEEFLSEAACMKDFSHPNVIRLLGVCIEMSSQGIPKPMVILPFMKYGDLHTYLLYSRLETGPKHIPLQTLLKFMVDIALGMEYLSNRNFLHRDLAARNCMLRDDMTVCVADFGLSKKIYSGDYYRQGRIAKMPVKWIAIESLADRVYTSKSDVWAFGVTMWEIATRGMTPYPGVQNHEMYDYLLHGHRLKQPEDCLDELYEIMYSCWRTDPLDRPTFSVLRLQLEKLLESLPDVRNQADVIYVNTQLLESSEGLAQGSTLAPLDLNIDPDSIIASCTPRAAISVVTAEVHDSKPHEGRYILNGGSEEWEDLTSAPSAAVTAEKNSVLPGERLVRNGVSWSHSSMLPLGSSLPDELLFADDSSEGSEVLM

Going from AGQEDDDRLRP [RAC1_Y64_Y64D] to EPNSRYTCKLE [USH2A_Y3745_Y3747C], the phosphorylation enrichment rises from 0.439 to 0.497.

Going from RAEAPYLLVSN [LRIG1_Y1054_Q1053P] to SEDSEYYRAFE [CASQ2_Y178_K180R], the phosphorylation enrichment rises from 0.456 to 0.523.

Compared with CEHRGCLFLAI [TEK_Y897_Y897C_YF], NPQKSYFIRLY [WAS_Y83] is higher in phosphorylation enrichment: 0.298 for the first, 0.353 for the second.

Going from RAHARYCADAC [ACOT4_Y52_R57C] to KRPAVYIDEEA [EPM2A_Y304], the phosphorylation enrichment rises from 0.437 to 0.518.

Going from KRLAVYIDEEA [EPM2A_Y304_P301L] to VVDVTYDDVPI [FLNB_Y1308_E1305D], the phosphorylation enrichment rises from 0.484 to 0.511.

First: ESKKHYGFSLF [ANXA3_Y295_F291S_YF]
Second: DLLMQHPKAQG [FAM83C_Y600_Y600H]
The phosphorylation enrichment of the first is lower: 0.526 for the first, 0.53 for the second.

Compared with WHHTFYNELCV [ACTC1_Y93_R97C], TVQVAYYTVMM [SPATA17_Y83_M86V] is higher in phosphorylation enrichment: 0.905 for the first, 5.44 for the second.

First: PKSWNYELPAT [PROM1_Y34_A31S]
Second: LEKISYVFMKR [SSX7_Y48_YF]
The phosphorylation enrichment of the first is higher: 1.07 for the first, 0.538 for the second.

Going from CLAKMYFSAVE [CP_Y539_D544E_YF] to GEAEQYVGGGG [FAT4_Y4980], the phosphorylation enrichment falls from 0.514 to 0.371.

Going from EGTATYAAAIL [JUP_Y644_V648I] to SGVSYYINLCQ [IGF2R_Y2025_N2020S], the phosphorylation enrichment falls from 0.534 to 0.316.

Going from GLDGSYLLTDS [SH2D1A_Y29_R32T] to NYRPGYNNFYN [USH2A_Y467], the phosphorylation enrichment rises from 0.369 to 0.551.

Going from VDTLWYKFLKR [EPM2A_Y86_F84L] to GGEEFYVHFVG [KAT8_Y90_R86G_YF], the phosphorylation enrichment rises from 0.374 to 0.433.

Going from RKVAQYMLENE [SLC16A6_Y224_E221V] to FRDMDYRSFPH [RBM10_Y41_R46H_YF], the phosphorylation enrichment falls from 0.465 to 0.385.

First: SKHRLYSDLQT [PTCHD1_Y84]
Second: NCLRQYVAGRF [CRB1_Y711_E710Q]
The phosphorylation enrichment of the first is higher: 0.645 for the first, 0.456 for the second.

First: KSEMSYIDGEK [SORBS1_Y485]
Second: GFAGKYIAMVM [CYP19A1_Y441_C437Y_YF]
The phosphorylation enrichment of the first is lower: 0.479 for the first, 0.525 for the second.

First: YSIDHYLGKEM [G6PD_Y202_R198S]
Second: PDDPDYSLVDD [PSTPIP2_Y323_N322D]
The phosphorylation enrichment of the first is higher: 1.3 for the first, 0.668 for the second.

The sequences below were run on Fer (mouse) in the same assay as above.

Going from AGQEDDDRLRP [RAC1_Y64_Y64D] to EPNSRYTCKLE [USH2A_Y3745_Y3747C], the phosphorylation enrichment falls from 0.572 to 0.566.

Going from RAEAPYLLVSN [LRIG1_Y1054_Q1053P] to SEDSEYYRAFE [CASQ2_Y178_K180R], the phosphorylation enrichment falls from 0.699 to 0.515.

First: CEHRGCLFLAI [TEK_Y897_Y897C_YF]
Second: NPQKSYFIRLY [WAS_Y83]
The phosphorylation enrichment of the first is lower: 0.421 for the first, 0.542 for the second.

First: RAHARYCADAC [ACOT4_Y52_R57C]
Second: KRPAVYIDEEA [EPM2A_Y304]
The phosphorylation enrichment of the first is lower: 0.518 for the first, 0.548 for the second.

First: KRLAVYIDEEA [EPM2A_Y304_P301L]
Second: VVDVTYDDVPI [FLNB_Y1308_E1305D]
The phosphorylation enrichment of the first is lower: 0.524 for the first, 3.96 for the second.

Going from ESKKHYGFSLF [ANXA3_Y295_F291S_YF] to DLLMQHPKAQG [FAM83C_Y600_Y600H], the phosphorylation enrichment falls from 0.526 to 0.483.

First: WHHTFYNELCV [ACTC1_Y93_R97C]
Second: TVQVAYYTVMM [SPATA17_Y83_M86V]
The phosphorylation enrichment of the first is lower: 1.04 for the first, 1.59 for the second.

Compared with PKSWNYELPAT [PROM1_Y34_A31S], LEKISYVFMKR [SSX7_Y48_YF] is lower in phosphorylation enrichment: 1.06 for the first, 0.879 for the second.

Compared with CLAKMYFSAVE [CP_Y539_D544E_YF], GEAEQYVGGGG [FAT4_Y4980] is lower in phosphorylation enrichment: 0.602 for the first, 0.448 for the second.

Compared with EGTATYAAAIL [JUP_Y644_V648I], SGVSYYINLCQ [IGF2R_Y2025_N2020S] is lower in phosphorylation enrichment: 1.57 for the first, 1.03 for the second.

First: GLDGSYLLTDS [SH2D1A_Y29_R32T]
Second: NYRPGYNNFYN [USH2A_Y467]
The phosphorylation enrichment of the first is lower: 0.455 for the first, 0.711 for the second.

First: VDTLWYKFLKR [EPM2A_Y86_F84L]
Second: GGEEFYVHFVG [KAT8_Y90_R86G_YF]
The phosphorylation enrichment of the first is lower: 0.466 for the first, 0.592 for the second.

Going from RKVAQYMLENE [SLC16A6_Y224_E221V] to FRDMDYRSFPH [RBM10_Y41_R46H_YF], the phosphorylation enrichment falls from 0.861 to 0.407.

First: SKHRLYSDLQT [PTCHD1_Y84]
Second: NCLRQYVAGRF [CRB1_Y711_E710Q]
The phosphorylation enrichment of the first is higher: 0.654 for the first, 0.367 for the second.

Going from KSEMSYIDGEK [SORBS1_Y485] to GFAGKYIAMVM [CYP19A1_Y441_C437Y_YF], the phosphorylation enrichment rises from 0.493 to 0.539.

First: YSIDHYLGKEM [G6PD_Y202_R198S]
Second: PDDPDYSLVDD [PSTPIP2_Y323_N322D]
The phosphorylation enrichment of the first is lower: 0.455 for the first, 0.894 for the second.

Each sequence was assayed against EPHB2 (UniProt P29323) in the same assay as above.
Sequence of EPHB2 (P29323 whole entry, looked up): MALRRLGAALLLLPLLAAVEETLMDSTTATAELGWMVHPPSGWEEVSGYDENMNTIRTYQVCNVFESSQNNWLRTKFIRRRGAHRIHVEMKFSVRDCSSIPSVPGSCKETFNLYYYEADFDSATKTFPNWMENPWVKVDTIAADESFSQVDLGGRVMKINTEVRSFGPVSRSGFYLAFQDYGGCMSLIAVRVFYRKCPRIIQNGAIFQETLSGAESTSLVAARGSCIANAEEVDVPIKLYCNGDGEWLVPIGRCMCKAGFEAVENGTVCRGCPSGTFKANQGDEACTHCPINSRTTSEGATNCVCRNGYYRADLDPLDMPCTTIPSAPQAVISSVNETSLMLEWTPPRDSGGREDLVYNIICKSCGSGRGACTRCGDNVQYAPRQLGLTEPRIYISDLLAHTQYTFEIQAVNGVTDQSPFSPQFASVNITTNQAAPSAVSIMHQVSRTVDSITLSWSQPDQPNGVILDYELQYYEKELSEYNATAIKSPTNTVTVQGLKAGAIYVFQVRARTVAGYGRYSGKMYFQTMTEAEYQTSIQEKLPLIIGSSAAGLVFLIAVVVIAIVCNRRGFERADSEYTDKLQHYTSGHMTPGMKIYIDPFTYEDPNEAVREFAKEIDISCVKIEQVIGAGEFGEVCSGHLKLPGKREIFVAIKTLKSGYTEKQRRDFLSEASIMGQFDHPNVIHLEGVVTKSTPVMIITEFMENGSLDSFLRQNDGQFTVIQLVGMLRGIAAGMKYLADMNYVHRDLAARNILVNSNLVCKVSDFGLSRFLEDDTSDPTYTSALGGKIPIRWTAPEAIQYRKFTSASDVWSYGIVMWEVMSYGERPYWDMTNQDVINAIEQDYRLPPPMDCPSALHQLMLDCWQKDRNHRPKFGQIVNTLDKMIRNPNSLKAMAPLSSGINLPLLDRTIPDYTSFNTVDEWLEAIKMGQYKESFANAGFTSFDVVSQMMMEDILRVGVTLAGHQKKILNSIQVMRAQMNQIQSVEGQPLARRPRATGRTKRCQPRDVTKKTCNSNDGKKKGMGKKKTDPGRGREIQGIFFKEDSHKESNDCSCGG

Work on AGQEDDDRLRP [RAC1_Y64_Y64D] yielded a phosphorylation enrichment of 0.669.
